US20230128344A1 (UNIVERSITY OF SOUTHERN CALIFORNIA, published 2023)

Target: T1, hCLL-1 on U937 human AML cells (human, UniProt Q5QGZ9 1-265)
T1 sequence (looked up): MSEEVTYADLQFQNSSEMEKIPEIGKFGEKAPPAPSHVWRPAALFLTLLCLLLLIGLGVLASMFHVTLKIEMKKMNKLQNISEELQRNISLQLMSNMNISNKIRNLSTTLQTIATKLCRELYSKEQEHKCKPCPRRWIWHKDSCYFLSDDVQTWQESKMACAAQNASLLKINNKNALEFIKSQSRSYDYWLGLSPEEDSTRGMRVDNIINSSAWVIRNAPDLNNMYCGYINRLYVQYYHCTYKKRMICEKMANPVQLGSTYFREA
Test: cell-based or functional assay

B1: DAR2-ARC-ADC (DAR2-ARC-IgG conjugated with 2'-Cl-araNAD+-MMAF) (antibody)
heavy: not shown
light: ENVLTQSPAIMSASPGEKVTMTCRASSNVISSYVHWYQQRSGASPKLWIYSTSNLASGVPARFSGSGSGTSYSLTISSVEAEDAATYYCQQYSGYPLTFGAGTKLELKRAAAAPSVFIFPPSDEQLKSGTASVVCLLNNFYPREAKVQWKVDNALQSGNSQESVTEQDSKDSTYSLSSTLTLSKADYEKHKVYACEVTHQGLSSPVTKSFNRGEC
modifications: 2'-Cl-arabinose-ADP-MMAF on Glu226 of the CD38 domain (CD38 numbering)
  in vitro cytotoxicity EC50 on U937 (CLL-1+) cells (MTT, 72 hours): 0.9 nM
